The source of these data is US8022178B2, “Modified self-assembling peptides” (Massachusetts Institute of Technology, priority 2006, dated 2011).

The nature of data set [1]: Isoelectric plot and rheological data when 0.1 N NaOH is added (pH of gel formation). The format is physicochemical. The note with it: 1% solution, 0.1 N NaOH solution added. An excerpt:
At the point of pH 3.6, the viscous solution become gel and has a higher G′ (stiffness), G″ (viscosity) value. When the pH is increased, the gel breaks into small pieces and it becomes a solution with precipitated peptides. At lower pH, the peptide forms fibers and the fibers make the solution viscous. When the pH becomes higher, and approaches the pI value, the peptide fibers lose their charge and aggregate to form gel. The same gel formation happens when the peptide charge is screened by salts in a salt-containing solution (e.g., a solution containing a gellation agent or an iso-osmotic solute). Once the gel is formed, the fiber structure is broken into pieces to form a precipitate particle.
(§1) A comparison of the pH dependent property of 1% Ac(RADA)4GGFHRRIKA CONH2 (SEQ ID NO. 6) solution (Code: FHR), self assembling peptide sequence was compared with the heparin-binding motif. FIG. 12 depicts the isoelectric plot and corresponding rheological data when 0.1 N NaOH solution is added to FHR solution to adjust pH. The net charge of the peptide molecule is kept ≧2 when pH<10. Until at point of pH 5.7, the solution keeps viscous state. This movement of pH point where the peptide solution become gel is controlled by the charge induced by the additional motif to the self-assembling peptide. The induced charge prevents the peptide to aggregate to form the gel. Thus, the cell and the peptide solution can be mixed near neutral pH. After complete mixing, the gel formation can be made by adding salt containing solution (e.g., a solution containing a gellation agent or an iso-osmotic solute).
FIG. 18 depicts the isoelectric plot and Rheological data of PFS 1% solution when 0.1 N NaOH solution is added. 1% Ac(RADA)4GGSKPPGTSS-CONH2 solution (Code: SKP, peptide sequence: SEQ ID NO. 7) is a hydrogel composed of peptides with a self-assembling sequence and positively-charged functional motif. Although the pI value of the peptide is 9.74 and it keeps positive charge at near pH 7 range, the gel is formed at the point of pH 4.5. […]

The test system of data set [2] is HUVEC (human umbilical vein endothelial cells). As to the kind of experiment: HUVEC cultured 2-dimensionally on hydrogels: cell attachment and morphology. The format is cell-based. More on the design: key to Capillary like morphology: weak: +; medium: ++; strong: +++; very strong: ++++. The note with it: HUVEC cultured on hydrogels. Here is the method:
The effect of functional modified peptide matrix to HUVEC (human umbilical vein endothelial cells) was evaluated by culturing cells 2-dimensionally on the gel.
The peptide solutions shown in Table 19 were loaded in the culture inserts (10 mm diameter, Millicell-CM, Millipore) and gels were formed using cell culture medium (EGM-2-MV, Camblex). Collagen-1 and Matrigel were used as control matrices. HUVEC (human umbilical vein endothelial cells) were plated at 8×10^4 cells on the inserts and cultured up to 7 Days.

Data set [3] deals with bFGF (Homo sapiens, UniProt P09038). As to the kind of experiment: bFGF retention in peptide matrix (ELISA). The note with it: bFGF 175 ng/insert loaded after gelation; during PBS washing and culturing; FIG. 19. The procedure: The effect of protein retention and delivery using the self-assembling peptide were studied (Table 11). bFGF was used as a model protein. The retention of bFGF in different peptide matrix in different charge condition was measured by ELISA after washing by PBS. After washing out unbound bFGF, the effect of protein retention to self-assembling peptide matrix were evaluated the using cell culturing of HUVEC (human umbilical vein endothelial cells).
bFGF, sequence (P09038 143-288, species assumed): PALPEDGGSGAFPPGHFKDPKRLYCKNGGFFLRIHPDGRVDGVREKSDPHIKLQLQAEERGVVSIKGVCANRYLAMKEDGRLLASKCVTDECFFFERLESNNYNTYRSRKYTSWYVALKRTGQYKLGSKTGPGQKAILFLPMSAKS
The peptide solutions provided in Table 12 were loaded in the culture inserts (10 mm diameter, Millicell-CM, Millipore) and gels were formed using PBS. After gelation, bFGF solution in PBS was added inside and outside and plated for overnight. bFGF was loaded at 175 ng/insert. After loading bFGF, the PBS inside and outside the inserts were exchanged three times (2 hours, 9 hours and 12 hours) to remove unbound bFGF (Washing). After the washing, the PBS was exchanged to the cell culture medium (EGM-2-MV, Camblex) without attached growth factor (bFGF, VEGF and EGF) and placed more than a day (such that the fluid contained in the gel is exchanged from PBS to cell culture medium), then HUVEC (human umbilical vein endothelial cells) were plated at 7.5×10^4 cells on the inserts and cultured for three days.
Cell culturing using cell culture medium (EGM-2-MV) was used without attached growth factor on peptide matrix as negative control. Cell culturing using cell culture medium (EGM-2-MV) was used with attached growth factor on peptide matrix without loading growth factor as positive control. The bFGF concentration in washing buffer (PBS) and cell culture medium (EGM-2-MV) was measured using ELISA. The washing buffer and cell culture medium were exchanged at each measurement period (2 hours, 9 hours and 12 hours for washing, and at the cell seeding (D0), Day 1 (D 1), Day 2 (D2) and Day 3 (D3)). Growth factor retention rate was calculated by accumulating the amount of measured bFGF.

Data set [4] in a line: pI and charge of the self-assembling peptide. The data set is classed as physicochemical. The procedure: as §1
FIG. 18 depicts the isoelectric plot and Rheological data of PFS 1% solution when 0.1 N NaOH solution is added. 1% Ac(RADA)4GGSKPPGTSS-CONH2 solution (Code: SKP, peptide sequence: SEQ ID NO. 7) is a hydrogel composed of peptides with a self-assembling sequence and positively-charged functional motif. Although the pI value of the peptide is 9.74 and it keeps positive charge at near pH 7 range, the gel is formed at the point of pH 4.5. This is because the charge of the molecule around pH 7 range is +1 and smaller than the charge of Ac(RADA)4GGFHRRIKA CONH2 (FHR) (bigger than 3). The charge of the whole peptide should be larger than 2 when the cell is mixed. This pH should be somewhere in 6-8 in order to minimize the damage to the cells. As this sequence is heparin-binding motif, the fiber can attach to the heparin molecule which is abundant at cell surface. This heparin-binding motif provides a specific anchor to the cell. As described in Example 1, this binding synergistically works with the other binding motif (e.g., RGD) to induce biological stimuli for cell proliferation and differentiation. This effect is not limited to the sequences previously describe, but the other motifs, including -XBBXBX- and -XBBBXXBX- sequences. […]

Where only a bound is given, the exact number is not on record here.

With Ac(RADA)4-CONH2, the “pH at which the viscous peptide solution becomes gel” value in data set [1] was found to be 3.6. Further, the Cell attachment entry in data set [2] is reported as “+ (+: Weak(<20%))”. Further, the “bFGF (growth factor) retention rate” value in data set [3] is “high in the order of KFQ-2P, FHR-2P, RAD-2P then DGR-2P”. For the same substance, in data set [4], the charge entry was “neutral” and the pI stood at 6.1.

For “Ac(RADA)4GGFHRRIKA-CONH2 (Ac-RADARADARADARADAGGFHRRIKA-NH2) [FHR = 1% solution; FHR-2P = 2% solution]”, the “pH at which the viscous peptide solution becomes gel” value in data set [1] was 5.7. For the same substance, in data set [2], the Capillary like morphology result was “+” and the Cell attachment entry was “++ (++: 20-50%)”. Besides, the “bFGF (growth factor) retention rate” value in data set [3] was “high in the order of KFQ-2P, FHR-2P, RAD-2P then DGR-2P”. In data set [4], the charge entry is “positively charged” and the pI was 11.32,. In data set [4] (around pH 7), the “charge of the molecule around pH 7 range” value was above 3. For the same substance, in data set [4] (when pH<10), the “net charge of the peptide molecule” value was at least 2.
